Key:
HveC(346t) (human) [1] = molecular target: HveC(346t) (human) (UniProt Q15223); test: SPR (Biacore X)
HveC(143t) (human) [2] = molecular target: HveC(143t) (human) (UniProt Q15223); test: gel filtration, from the size of the complex
HveC(245t) (human) = HveC(245t) (human) (UniProt Q15223); test: gel filtration, from the size of the complex
HveC(346t) (human) [3] = molecular target: HveC(346t) (human) (UniProt Q15223); test: gel filtration, from the size of the complex
HveC(143t) (human) [4] = molecular target: HveC(143t) (human) (UniProt Q15223); test: silver-stained PAGE of the complex fraction against standards
HveC(346t) (human) [5] = molecular target: HveC(346t) (human) (UniProt Q15223); test: silver-stained gel analysis of the complex formed in excess gD(285t)
HveC(143t) (human) [6] = molecular target: HveC(143t) (human) (UniProt Q15223); test: SPR (Biacore X), HveC(143t) amine-coupled to the chip, gD in flow, KD = koff/kon
HveC(346t) (human) [7] = molecular target: HveC(346t) (human) (UniProt Q15223); test: SPR (Biacore X), HveC(346t) amine-coupled to the chip, gD in flow, KD = koff/kon
HveC(143t) (human) [8] = molecular target: HveC(143t) (human) (UniProt Q15223); test: SPR (Biacore X), HveC(143t) amine-coupled to the chip, gD in flow, 1:1 Langmuir global fit
HveC(346t) (human) [9] = molecular target: HveC(346t) (human) (UniProt Q15223); test: SPR (Biacore X), HveC(346t) amine-coupled to the chip, gD in flow, 1:1 Langmuir global fit
HveA(200t) (human) [10] = molecular target: HveA(200t) (human) (UniProt Q92956); test: ELISA, HveAt on the plate
Sequence of UniProt Q92956 (Q92956 39-202): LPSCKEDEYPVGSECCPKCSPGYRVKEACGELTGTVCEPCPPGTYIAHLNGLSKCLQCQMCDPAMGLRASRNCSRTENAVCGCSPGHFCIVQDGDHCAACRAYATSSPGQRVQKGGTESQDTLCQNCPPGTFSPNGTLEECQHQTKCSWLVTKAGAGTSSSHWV

HveC(346t) (human) [11] = molecular target: HveC(346t) (human) (UniProt Q15223); test: ELISA, HveCt on the plate
HveA(200t) (human) [12] = molecular target: HveA(200t) (human) (UniProt Q92956); test: ELISA, apparent affinity from half-maximal binding, HveAt on the plate
HveC(346t) (human) [13] = molecular target: HveC(346t) (human) (UniProt Q15223); test: ELISA, apparent affinity from half-maximal binding, HveCt on the plate
HveC(346t) (human) [14] = molecular target: HveC(346t) (human) (UniProt Q15223); test: gel filtration
HveC(346t) (human) [15] = molecular target: HveC(346t) (human) (UniProt Q15223); test: gel filtration at various molar ratios
HveC(346t) (human) [16] = molecular target: HveC(346t) (human) (UniProt Q15223); test: silver-stained SDS-PAGE of the complex fraction

| Substance | Kd (HveC(143t) (human) [6]) | Kd (HveC(346t) (human) [7]) | koff (HveC(143t) (human) [8]) | kon (HveC(143t) (human) [8]) | koff (HveC(346t) (human) [9]) | kon (HveC(346t) (human) [9]) | further results |
| --- | --- | --- | --- | --- | --- | --- | --- |
| gD(285t) (ligand) | 35 nM | 38 nM | 0.013 s⁻¹ | 370000 M⁻¹ s⁻¹ | 0.0073 s⁻¹ | 190000 M⁻¹ s⁻¹ | fold increase in affinity over gD(306t) (HveC(346t) (human) [1]): > 80 fold; stoichiometry (gD:HveC) (HveC(143t) (human) [2]): 1 gD per HveC; stoichiometry (gD:HveC) (HveC(245t) (human)): 1 gD per HveC; stoichiometry (gD:HveC) (HveC(346t) (human) [3]): 2 gD per HveC; ratio in the complex (HveC(143t) per gD(285t)) (HveC(143t) (human) [4]): 1; ratio in the complex (HveC(346t) (human) [5]): 2 gD per HveC |
| gD(306t)rid1 (ligand) | 200 nM | 170 nM | 0.008 s⁻¹ | 39000 M⁻¹ s⁻¹ | 0.0047 s⁻¹ | 27000 M⁻¹ s⁻¹ | fold increase in affinity compared to gD(306t) (HveC(346t) (human) [1]): 20 fold |
| gD-1(306t) KOS (ligand) | 1200 nM | 3200 nM | 0.011 s⁻¹ | 9000 M⁻¹ s⁻¹ | 0.007 s⁻¹ | 2200 M⁻¹ s⁻¹ | gD concentration at saturation (HveA(200t) (human) [10]): 2 to 3 µM; gD concentration at saturation (µM (printed RM)) (HveC(346t) (human) [11]): 10 to 20; Kd (HveA(200t) (human) [12]): 300 nM; Kd (HveC(346t) (human) [13]): 1000 nM |
| gD-1(A290-299t) (ligand) |  |  |  |  |  |  | stoichiometry (gD:HveC) (HveC(346t) (human) [14]): 2 gD per HveC; fold increase in binding compared to wild type gD(306t) (HveA(200t) (human) [10]): 100 fold; fold increase in binding compared to wild type gD(306t) (HveC(346t) (human) [11]): 100 fold; stoichiometry (gD:HveCt) (HveC(346t) (human) [15]): 2 gD per HveCt; gD:HveCt ratio in the complex (HveC(346t) (human) [16]): 1.6 gD per HveCt |

From US6641818
